We go through one substance from article PMC12316308, “Interactions of substrates and phosphinyl containing inhibitors with bacterial and human zinc proteases” (PLOS One, 2025).

One may read the Km as the concentration of substrate that gives half-maximal velocity.

This data set has as its system T1, COc1ccc2c(CC(=O)N3CCC[C@H]3C(=O)N[C@@H](CC(C)C)C(=O)NCC(=O)N[C@@H](CC(C)C)C(=O)N[C@@H](CNc3ccc([N+](=O)[O-])cc3[N+](=O)[O-])C(=O)N[C@@H](C)C(=O)N[C@@H](CCCNC(=N)N)C(N)=O)cc(=O)oc2c1.
T1 construct: made in house; host or cells: Sf9 and High Five insect cells
As to the kind of experiment: Determination of Km values. It is filed as biochemical, human. Particulars: other: MMP-9(MT); 1% DMSO; n = 3; pH 7.5.

Sequence of Mag-Trypsin activated recombinant MMP-9 (MMP-9(MT)) (Homo sapiens) (chain, as listed by the source): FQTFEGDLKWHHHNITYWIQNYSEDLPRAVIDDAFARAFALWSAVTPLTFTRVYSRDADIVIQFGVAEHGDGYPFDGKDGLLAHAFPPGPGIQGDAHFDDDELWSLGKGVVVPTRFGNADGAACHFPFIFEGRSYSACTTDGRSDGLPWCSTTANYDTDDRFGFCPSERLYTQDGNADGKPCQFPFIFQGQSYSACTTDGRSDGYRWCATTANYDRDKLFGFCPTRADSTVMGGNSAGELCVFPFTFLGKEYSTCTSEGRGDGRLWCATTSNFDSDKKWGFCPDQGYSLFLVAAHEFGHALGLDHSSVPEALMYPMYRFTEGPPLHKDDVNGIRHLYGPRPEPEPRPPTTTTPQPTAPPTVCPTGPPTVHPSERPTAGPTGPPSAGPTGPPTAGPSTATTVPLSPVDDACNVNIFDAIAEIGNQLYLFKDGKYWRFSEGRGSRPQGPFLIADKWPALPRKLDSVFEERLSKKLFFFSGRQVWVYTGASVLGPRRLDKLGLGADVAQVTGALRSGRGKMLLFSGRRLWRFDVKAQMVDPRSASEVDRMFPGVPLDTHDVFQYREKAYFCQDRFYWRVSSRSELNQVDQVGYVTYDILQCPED
Protocol: Determination of Km values. […] Substrate concentrations used were 1–10 µM in a total volume of 100 µL of 0.1 M Hepes pH 7.5 containing 10 mM CaCl2, 0.005% Brij-35 and 1.0% DMSO. […] Initial rate experiments were performed as described above to determine enzyme reaction velocities using a LS 50 Luminescence Spectrometer and the FL WinLab Software Package (Perkin Elmer). The Km and s.d values were calculated with Graph Pad Prism 5 using the Michaelis-Mention equation. […] During these experiments, reactions were monitored for only one minute, and initial reaction velocities were determined from the activity curves.

As for “Mag-Trypsin activated recombinant MMP-9 (MMP-9(MT)) (Homo sapiens)”, the Km came out at 2.7 ± 0.5 µM.
